Molecular target: T1, Albumin from chicken egg (Ovalbumin/OVA) (chicken), P01012
T1 chain: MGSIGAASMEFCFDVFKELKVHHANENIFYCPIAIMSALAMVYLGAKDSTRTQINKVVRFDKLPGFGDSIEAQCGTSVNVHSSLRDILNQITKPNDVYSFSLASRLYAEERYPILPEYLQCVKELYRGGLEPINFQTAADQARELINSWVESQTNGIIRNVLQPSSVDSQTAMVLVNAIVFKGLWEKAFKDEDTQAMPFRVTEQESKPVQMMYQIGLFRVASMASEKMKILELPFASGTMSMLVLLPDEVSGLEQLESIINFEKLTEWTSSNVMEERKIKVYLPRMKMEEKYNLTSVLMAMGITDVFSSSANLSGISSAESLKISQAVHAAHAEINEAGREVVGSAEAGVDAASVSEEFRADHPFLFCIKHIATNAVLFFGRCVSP
Assay: native MS
Details: remark: other sources report otherwise

relative abundance of the dimer: 5 to 8%
stoichiometry N: 2
B1: Albumin from chicken egg (Ovalbumin/OVA), P01012 1-386 (natural protein)
chain: MGSIGAASMEFCFDVFKELKVHHANENIFYCPIAIMSALAMVYLGAKDSTRTQINKVVRFDKLPGFGDSIEAQCGTSVNVHSSLRDILNQITKPNDVYSFSLASRLYAEERYPILPEYLQCVKELYRGGLEPINFQTAADQARELINSWVESQTNGIIRNVLQPSSVDSQTAMVLVNAIVFKGLWEKAFKDEDTQAMPFRVTEQESKPVQMMYQIGLFRVASMASEKMKILELPFASGTMSMLVLLPDEVSGLEQLESIINFEKLTEWTSSNVMEERKIKVYLPRMKMEEKYNLTSVLMAMGITDVFSSSANLSGISSAESLKISQAVHAAHAEINEAGREVVGSAEAGVDAASVSEEFRADHPFLFCIKHIATNAVLFFGRCVSP

Reference: publication doi:10.1101/2023.01.09.523258
